Source: patent US20140193417A1 (LUDWIG INSTITUTE FOR CANCER RESEARCH, published 2014)

Target: T1, sodium-dependent phosphate transport protein 2b (NaPi2b, SLC34A2), human, endogenous (human, UniProt O95436 1-690)
T1 construct: whole, on cells; Naturally expressed, N-glycosylated membrane protein of human cancer cell lines (OVCAR-3, SK-RC-18 and others) and tissues; used on intact cells (MHA, flow cytometry), in cell or tissue lysates (Western blot, immunoprecipitation) and in tissue sections; also called MX35 antigen; NaPi2b/MX35
T1 sequence (looked up): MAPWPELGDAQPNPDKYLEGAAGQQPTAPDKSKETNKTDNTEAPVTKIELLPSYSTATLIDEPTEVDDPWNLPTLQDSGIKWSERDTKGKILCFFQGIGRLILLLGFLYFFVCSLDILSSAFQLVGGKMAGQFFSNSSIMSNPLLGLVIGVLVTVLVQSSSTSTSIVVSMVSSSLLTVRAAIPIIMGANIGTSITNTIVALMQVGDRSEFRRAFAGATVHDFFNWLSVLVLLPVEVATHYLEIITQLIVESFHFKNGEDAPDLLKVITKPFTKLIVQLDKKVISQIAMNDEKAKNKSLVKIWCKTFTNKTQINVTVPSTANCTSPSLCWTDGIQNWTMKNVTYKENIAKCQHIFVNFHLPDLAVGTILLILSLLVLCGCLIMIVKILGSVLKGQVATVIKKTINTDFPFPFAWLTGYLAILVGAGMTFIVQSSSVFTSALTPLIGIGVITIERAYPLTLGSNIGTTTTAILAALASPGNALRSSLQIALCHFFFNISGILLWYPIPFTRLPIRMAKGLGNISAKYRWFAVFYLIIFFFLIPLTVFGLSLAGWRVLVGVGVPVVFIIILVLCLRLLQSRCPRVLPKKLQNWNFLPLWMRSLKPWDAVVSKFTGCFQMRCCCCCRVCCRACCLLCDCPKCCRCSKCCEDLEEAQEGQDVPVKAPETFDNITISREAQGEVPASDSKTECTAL
Assay: flow cytometry on SK-RC-18 cells, 20 ug/ml antibody
Procedure: The binding efficacy of humanized MX35 antibody, synthesized and purified as described above, was compared with the murine version of the MX35 antibody, using fluorescein isothiocyanate—FITC—marker to assess the specific binding to different cells lines in flow cytometry. The cell lines listed in TABLE 4 were trypsinized, adjusted to a concentration of 2.5×10⁵ cells and distributed in 1.5 mL test tubes. After centrifugation the pellet was resuspended in 100 uL of primary antibody (either murine MX35, humanized MX35, hu3S193 or Zenapax®) diluted in the same culture medium used to cultivate the cells in the concentration of 20 μg/ml. In the case of controls “cells only” and FITC-conjugates, the cells were resuspended in 100 μL of medium culture. The mixtures were incubated for 1 h at 4° C. and then washed twice with 200 μL of phosphate buffered saline. The cells were resuspended in 100 μL of secondary antibody-FITC conjugated, either murine or human depending on the MX35 antibody version used. The control “cells only” tube received medium culture only. […] Staining of the cells with the fluorescent probes was measured in a fluid stream in the flow cytometry Guava® ExpressPro (Guava EasyCyte Mini System). For each individual experiment 10,000 events were acquired and counted.

binding result: binds
B1: humanized MX35 (huMX35) monoclonal antibody (antibody, V domains shown)
VH: QVQLVQSGAEVVKPGASVKMSCKASGYTFTGYNIHWVKQAPGQGLEWIGAIYPGNGDTSYKQKFRGRATLTADTSTSTVYMELSSLRSEDSAVYYCARGETARATFAYWGQGTLVTVSS
VL: DIQMTQSPSSLSASVGDRVTITCSASQDIGNFLNWYQQKPGKTVKVLIYYTSSLYSGVPSRFSGSGSGTDYTLTISSLQPEDFATYYCQQYSKLPLTFGQGTKLELKR
notes: Produced in Per.C6 cells, protein A purified; also called Human MX35; humanized MX35 antibody
